Measurements published in article PMC9839372 (2023).

B1: GFP-tagged PRR14 (1-212) wild-type fragment [human] / Heterochromatin Protein 1 beta (HP1β) [human (endogenous in Lenti-X 293T)] (parent complex)
chain 1: MDLPGDSSPPGQPRLCRQPLTRALWGARSPKRPRLQLPGAPSPLEKASRRVLAVVLEDVMAVHMVPVVPSKQTSIPQHHSYHQDPVHRQPPASPPRQAGWSSQARPPDPLCLCREPLSRIHRTSSTLRRRSRTTPGPEEGPSQKVDRAPQPTLVVMLEDIASPRPPAEGFIDETPNFIIPAQRAEPMRIVRQPTPPPGDLEPPFQPSALPAD
chain 2: not shown
B2: GFP-tagged PRR14 (1-212) wild-type fragment [human] / Heterochromatin Protein 1 gamma (HP1γ) [human (endogenous in Lenti-X 293T)] (parent complex)
chain 1: B1 chain 1
chain 2: not shown

Variants of: B1
Assay: co-immunoprecipitation (anti-GFP IP) with Western blot, band intensity quantified; lysates of 293T cells expressing GFP-PRR14 (1-212) constructs; n = 3 independent immunoprecipitations; parent: 91; read off a plot

response | Variant
~35 | chain 1 V54E, chain 1 V55E
~91 | chain 1 V154E, chain 1 V155E
~43 | chain 1 V54E, chain 1 V55E, chain 1 V154E, chain 1 V155E

Variants of: B2
Assay: co-immunoprecipitation (anti-GFP IP) with Western blot, band intensity quantified; lysates of 293T cells expressing GFP-PRR14 (1-212) constructs; n = 3 independent immunoprecipitations; parent: 95; read off a plot

response | Variant
~6 | chain 1 V54E, chain 1 V55E, chain 1 V154E, chain 1 V155E
~17 | chain 1 V54E, chain 1 V55E
~95 | chain 1 V154E, chain 1 V155E
